Series [1] deals with T1, LbCas12a D559P (Lachnospiraceae bacterium ND2006). Briefly: cell_activity; 5 uM RNP, HEK293, 48 h, T7EI; WT 78.5; PAM not stated.
Series [2] deals with T2, LbCas12a D559P/E795L (Lachnospiraceae bacterium ND2006). Described as above.
Series [3] deals with T3, LbCas12a N527R/D559P/E795L (Lachnospiraceae bacterium ND2006). The series is described as above.
For series [4], the target named is T4, LbCas12a N527R/E795L (Lachnospiraceae bacterium ND2006). The description is as above.
The target in series [5] is T5, LbCas12a N527R (Lachnospiraceae bacterium ND2006). The description is as above.
Series [6] has as its target T6, LbCas12a E795L (Lachnospiraceae bacterium ND2006). The series is described as above.
Series [7] addresses T1, LbCas12a D559P. As to the kind of experiment: cell_activity; 5 uM RNP, HEK293, 48 h, T7EI; WT 80.35; PAM not stated.
Series [8] has as its target T2, LbCas12a D559P/E795L. Described as above.
The target of series [9] is T3, LbCas12a N527R/D559P/E795L. The series is described as above.
For series [10], the target named is T4, LbCas12a N527R/E795L. Described as above.
For series [11], the target named is T5, LbCas12a N527R. Described as above.
Series [12] deals with LbCas12a N527R/D559P (Lachnospiraceae bacterium ND2006). Described as above.
The target in series [13] is T6, LbCas12a E795L. The series is described as above.

B1: LbCpf1 HPRT 38330-AS-23 crRNA ; HPRT 38330-AS target (protospacer as DNA, 23 nt) (ssRNA ; dsDNA)
RNA: UAAUUUCUACUAAGUGUAGAUGGUUAAAGAUGGUUAAAUGAUUG
DNA 1: GGTTAAAGATGGTTAAATGATTG
DNA 2: CAATCATTTAACCATCTTTAACC
modifications: Alt-R end modifications on 5' and 3' ends
As for B1, the activity in [1] came to 58.4 % cleavage; in series [2], 75.8 % cleavage; in [3] it was 28.8 % cleavage; in series [4], 21.2 % cleavage; in series [5] it was 9.6 % cleavage; in series [6] it was 79.5 % cleavage.

B2: LbCpf1 HPRT 38115-AS-23 crRNA ; HPRT 38115-AS target (protospacer as DNA, 23 nt) (ssRNA ; dsDNA)
RNA: UAAUUUCUACUAAGUGUAGAUACACACCCAAGGAAAGACUAUGA
DNA 1: ACACACCCAAGGAAAGACTATGA
DNA 2: TCATAGTCTTTCCTTGGGTGTGT
modifications: Alt-R end modifications on 5' and 3' ends
Regarding B2, the activity was found to be 78 % cleavage in [7]; 79.3 % cleavage in series [8]; 60.3 % cleavage in series [9]; 39.3 % cleavage in series [10]; 35 % cleavage in series [11]; 9.39 % cleavage in series [12]. For the same molecule, the activity in [13] stood at 78.2 % cleavage.

Source of the values: US20230040148 (published 2023).
